Source: patent US20110077383A1 (AstraZeneca / MedImmune, published 2011)

B1: mAb 12G3H11, human anti-human EphA2 monoclonal antibody, wild type hinge (antibody, human IgG1, V domains shown)
VH: QMQLVQSGPEVKKPGTSVKVSCKASGFTFDDYSMNWVRQARGQRLEWIGFIRNKANDYTTEYADSVKGRVTITRDMSTSTAYMELSSLRSEDTAVYYCARYPRHHAMDSWGQGTSVTVSS
VL: DIQMTQSPSSLSASVGDRVTITCRASQSISNNLHWYQQKPGKAPKLLIKYAFQSISGVPSRFSGSGSGTDFTFTISSLQPEDFATYYCQQANSWPLTFGGGTKVEIK
notes: Human IgG1/kappa expressed in HEK 293 cells; also called Wild type (12G3H11); 12G3H11 “wild type”; not shown: human kappa light chain constant region
B2: 12G3H11 Fc variant 5-GGG Insert Low (antibody, IgG1)
heavy (part 1 of 2): B1 VH
heavy (part 2 of 2): not shown
light: B1 VL
notes: domain: lower hinge, CH2, CH3; 12G3H11 IgG1/kappa; GGG inserted between P227 and P228; not shown: human IgG1 heavy chain constant region, CH1 up to EU 215; human IgG1 heavy chain constant region from EU 231 (lower hinge, CH2, CH3); human kappa light chain constant region
B3: 12G3H11 Fc variant 14-T to C Middle (antibody, IgG1)
heavy (part 1 of 2): B1 VH
heavy (part 2 of 2): not shown
light: B1 VL
notes: domain: lower hinge, CH2, CH3; 12G3H11 IgG1/kappa; T223C; not shown: human IgG1 heavy chain constant region, CH1 up to EU 215; human IgG1 heavy chain constant region from EU 231 (lower hinge, CH2, CH3); human kappa light chain constant region
B4: 12G3H11 Fc variant 11-4 AA Delete (antibody, IgG1)
heavy (part 1 of 2): B1 VH
heavy (part 2 of 2): not shown
light: B1 VL
notes: domain: lower hinge, CH2, CH3; 12G3H11 IgG1/kappa; T223, H224, P227 and P228 deleted; not shown: human IgG1 heavy chain constant region, CH1 up to EU 215; human IgG1 heavy chain constant region from EU 231 (lower hinge, CH2, CH3); human kappa light chain constant region
B5: 12G3H11 Fc variant 13-2 AA Delete Mid (antibody, IgG1)
heavy (part 1 of 2): B1 VH
heavy (part 2 of 2): not shown
light: B1 VL
notes: domain: lower hinge, CH2, CH3; 12G3H11 IgG1/kappa; T223 and H224 deleted; not shown: human IgG1 heavy chain constant region, CH1 up to EU 215; human IgG1 heavy chain constant region from EU 231 (lower hinge, CH2, CH3); human kappa light chain constant region
B6: 12G3H11 Fc variant 18-EPKS to PPPP (antibody, IgG1)
heavy (part 1 of 2): B1 VH
heavy (part 2 of 2): not shown
light: B1 VL
notes: domain: lower hinge, CH2, CH3; 12G3H11 IgG1/kappa; EPKS replaced by PPPP; not shown: human IgG1 heavy chain constant region, CH1 up to EU 215; human IgG1 heavy chain constant region from EU 231 (lower hinge, CH2, CH3); human kappa light chain constant region
B7: 12G3H11 Fc variant 6-GGG Insert High (antibody, IgG1)
heavy (part 1 of 2): B1 VH
heavy (part 2 of 2): not shown
light: B1 VL
notes: domain: lower hinge, CH2, CH3; 12G3H11 IgG1/kappa; GGG inserted between D(Kabat 234) and K222; not shown: human IgG1 heavy chain constant region, CH1 up to EU 215; human IgG1 heavy chain constant region from EU 231 (lower hinge, CH2, CH3); human kappa light chain constant region

Molecular target: T1, human EphA2-Fc (human, UniProt P29317 25-534, limits assumed)
T1 construct: Coated on Azlactone beads and titrated in solution in KinExA; not shown: Fc part
Assay: KinExA, EphA2-Fc beads, solution equilibrium titration
Description: Protein concentrations were calculated by the BCA method. […] Coated beads were then separated from unreacted EphA2-Fc using a gentle pulse spin and blocked for approximately 2 h at room temperature with 1 M Tris, pH 8.0, bovine serum albumin 10 mg/mL. Beads were then resuspended in 30 mL of run buffer (PBS, pH 7.4-0.02% NaN₃) and packed into a column. […] The amount of free IgG in the samples was derived from the fluorescence signal obtained after the passing of Cy5-labeled goat anti-human IgG F(ab′)₂ (typically 0.5-2 μg/ml; Jackson ImmunoResearch Laboratories, West Grove, Pa.) through the column.

T1 sequence (P29317 25-534 limits assumed): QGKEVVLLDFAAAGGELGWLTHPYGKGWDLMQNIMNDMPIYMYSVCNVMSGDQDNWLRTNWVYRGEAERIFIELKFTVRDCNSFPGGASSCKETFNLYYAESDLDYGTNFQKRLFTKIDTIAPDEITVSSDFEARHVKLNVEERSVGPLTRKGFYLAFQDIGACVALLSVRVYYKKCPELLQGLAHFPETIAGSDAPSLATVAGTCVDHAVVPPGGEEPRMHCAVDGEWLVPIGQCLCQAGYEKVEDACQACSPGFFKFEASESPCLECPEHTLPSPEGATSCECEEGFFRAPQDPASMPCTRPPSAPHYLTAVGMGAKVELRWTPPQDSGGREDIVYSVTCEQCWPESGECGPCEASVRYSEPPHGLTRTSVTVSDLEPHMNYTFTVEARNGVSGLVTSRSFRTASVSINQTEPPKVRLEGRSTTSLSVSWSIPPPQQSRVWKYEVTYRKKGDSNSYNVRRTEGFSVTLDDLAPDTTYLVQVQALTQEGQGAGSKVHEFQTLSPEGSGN

Row | Kd | Binder
1 | 1.1 pM | B1
2 | 0.8 pM | B2
3 | 7.2 pM | B3
4 | ≤ 1 pM | B4
5 | 1.7 pM | B5
6 | 1.5 pM | B6
7 | 2.7 pM | B7
